± gives the uncertainty stated by the source.

The values that follow come from the supplement of paper PMC12042874.

The series in a line: amyloid nucleation score (Sup35N fusion, yeast selection) (log enrichment); library NNK3; higher = more nucleation; inactive = no reads after selection. Summed up: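 Output and input plasmid inserts were sequenced by Illumina after psi-negative yeast carrying Sup35N fused to peptides of 20 random codons had been induced 24 hours with 100 μM copper sulfate and grown 7 days at 30°C on medium lacking adenine and uracil. The nucleation score is the DiMSum log enrichment of output over input reads, centred on the mode score of non-aggregating sequences. Sequences with under 100 input reads were excluded.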
Turning to SNSLV, the amyloid nucleation score entry is “inactive”.
With SNSRVGIFWDRLVFRYCRGM the figure was -0.5 ± 1.
Under SNSVFIWYWPEWVEDWSSWL stands 0.607 ± 0.16; under SNTYCVPYRKGEELVYCGSW, “inactive”.
For the substance SNWSWQSPW, the amyloid nucleation score entry was “inactive”.
In the case of SNWVLACYKI, the amyloid nucleation score entry was “inactive”.
As to SNYPWCSSSYYLGKISDLCS, the amyloid nucleation score result is “inactive”.
In the case of SNYVKKQIALS, the amyloid nucleation score result is “inactive”.
With SPRKTNEAWPTGLSYETSVA the entry was “inactive”; with SPRLYETRMLPLTMGCGGDD, “inactive”.
Under SPRRH stands “inactive”.
Under SPSEMIAFWFNSTFVTSASG stands -0.46 ± 1.7.
Turning to SPYPITGLFWCFINWSHKVM, the amyloid nucleation score result was “inactive”.
SQCYCVYAGVVT displayed an amyloid nucleation score of 0.034 ± 0.51.
Turning to SQSGELFSDMMVLLG, the amyloid nucleation score entry is “inactive”.
Under SQTLYLGARVNRMRYVFSAC stands “inactive”.
For SQVGMSPYRSCSINKWCPGI, the amyloid nucleation score result was “inactive”.
Under SQVVDW stands “inactive”; under SQWIGFIEGCGNWMGYLACV, “inactive”; under SREIYSMVMQSHLVQWGVIA, “inactive”.
As to SRELNYVVAWIL, the amyloid nucleation score entry is “inactive”.
Under SRFDRVMQNDCCVYSCHIII stands “inactive”.
With SRFVYSSGY the entry was “inactive”; with SRIAFKVDFASCRARMCGVE, “inactive”.
In the case of SRIGFPICLRRGYVNQDCNG, the amyloid nucleation score result is “inactive”.
With SRIIVRN the entry was “inactive”; with SRILGNRMAFTA, “inactive”; with SRISKMSELIYRLRYIVILV, “inactive”.
With SRLMRKRISA the entry was “inactive”.
Under SRMSGVVGIAKV stands “inactive”; under SRPFICSPFQIWAFKFTPMN, “inactive”; under SRRVNFLPVVFQHMTWLVLV, “inactive”.
SRSFKRNLVSMVNLGVRDEM: the amyloid nucleation score entry is “inactive”.
With SRSLLEAWDHGTHAGLHVWS the entry was “inactive”.
Under SRTFVRECKWGFVCRYKVWV stands “inactive”; under SRVISLFSGVCRGLRGYVNR, “inactive”; under SRWEKSFALICAS, “inactive”.
Under SRYRAEIDARYNFLRGFNAC stands -0.449 ± 0.8.
Turning to SSALRMYVCSAWG, the amyloid nucleation score result was “inactive”.
With SSANVDMPVDCDTRWTCW the entry was “inactive”.
Under SSAPEQRF stands “inactive”; under SSARRKNLRYEGVLRTEARV, “inactive”.
With SSDECYSNHCIWCVKQ the figure was 3.16 ± 0.061.
Turning to SSERSGRRRNWSVRSCLVGQ, the amyloid nucleation score entry was “inactive”.
With SSGAQQCILISSLVLNEDWL the figure was -0.46 ± 0.76; with SSGHAGGYINYSCTFSAYRM, 0.786 ± 0.19; with SSGSFS, “inactive”.
As to SSHGSRGITVDT, the amyloid nucleation score result was “inactive”.
On to SSHVQRMMRLMVAN, for which the amyloid nucleation score result was “inactive”.
With SSIVENGCNTERSPMIGCVS the figure was -0.576 ± 0.88; with SSLFLDCGFGV, “inactive”; with SSLIGRVDRIMYVSARERTI, “inactive”.
Take SSLNSMIIIRFHTSKGHVCK: the amyloid nucleation score was found to be 1.32 ± 0.17.
Under SSLSTNARVDLSMRR stands “inactive”.
SSMCVLCWTIVSVRNEAVEG had an amyloid nucleation score of 1.9 ± 0.098.
With SSNFVFNLPSTWWSYYMTWV the figure was -0.216 ± 0.75; with SSNILFVIFIAY, 1.08 ± 0.21.
For SSRSRTRWASNFLAHAYGRF, the amyloid nucleation score result is “inactive”.
Take SSRTTIQ: the amyloid nucleation score entry was “inactive”.
Under SSSSNANGFNRHYLSVRFGE stands “inactive”; under SSSVKEMQQPVTTTLETQST, “inactive”.
With SSVRMRISFMINGRQTA the figure was 0.833 ± 0.15; with SSVWIFRWTICNWESKF, 2.45 ± 0.052; with SSWMYGFCVSKSSWPRL, -0.272 ± 1.4.
As to STDLVIFMSTLPVCSCYCGQ, the amyloid nucleation score came to 1.72 ± 0.08.
Take STFGVVMTSSSD: the amyloid nucleation score entry was “inactive”.
Under STFMYVCWRPTYGSYYQTVR stands “inactive”.
For STGFGE, the amyloid nucleation score result was “inactive”.
As for STHKFNRNFIMSFAWLFICW, the amyloid nucleation score entry is “inactive”.
With STIFTVAVFDCNEHLARSKS the entry was “inactive”.
In turn, STIVGGSLCFPIASVTFNSC yielded an amyloid nucleation score of 2.2 ± 0.079.
With STLASSS, the amyloid nucleation score result was “inactive”.
Take STLFSPR: the amyloid nucleation score was 0.922 ± 0.14.
With STMLSYAVWALDMVFSYKVY the figure was -0.509 ± 0.84.
With STNWSILFQDHSTTFFLMCA the figure was 0.279 ± 0.2; with STSNFYLWGKPNVLAGMR, “inactive”; with STTFDLARWASVKSVHFCYF, “inactive”.
For STTHEYDI, the amyloid nucleation score result is “inactive”.
Under STWLSNWYY stands -0.759 ± 1.1; under STYLF, “inactive”; under SVEGQHYKLAVTFVDLYNSI, “inactive”.
Under SVFFPVEFTFRVGETLCCFF stands 3.01 ± 0.062.
With SVGLDRTSQEHSAYVGNVHS the entry was “inactive”; with SVGRSST, “inactive”; with SVHRLFISCKVWGFKVLWPV, “inactive”.
In the case of SVIILSCND, the amyloid nucleation score result was “inactive”.
With SVIRVMSFG the entry was “inactive”; with SVIRWFVTLWLGEHLRASDT, “inactive”.
Take SVIYVLYKVW: the amyloid nucleation score entry was “inactive”.
On to SVLFMRRLYSRMA, for which the amyloid nucleation score result was “inactive”.
With SVLGRHYVYLLSIVCGVIFG the entry was “inactive”; with SVLMA, “inactive”; with SVMHKSRSRGFNRNDGSVRV, “inactive”.
In the case of SVRTLLVTHFLRKPLALI, the amyloid nucleation score entry is “inactive”.
For the substance SVRWMTGRFVGCRRNQVQFR, the amyloid nucleation score worked out at 0.505 ± 0.38.
For the substance SVSFVDSRLLYVKICLSALG, the amyloid nucleation score result is “inactive”.
With SVSLYLNLVSLVYCLVCP the figure was 1.26 ± 0.14; with SVVLIMKICTVEGYDPQLLF, “inactive”; with SVYLGFIVGSVHPTHVISMR, “inactive”.
